Source: the DeepSol protein solubility set

Test: soluble on expression in E. coli; label from the status in PepcDB or PDB records

MKVNVSCSSVQTTIDILEENQGEDESILTLGQLRDRIATDNDVDVETMKLLHRGKFLQGADDVSLSTLNFKENDKIIVMGGKNALVDDAGFKMLMQYEKHNLSNLQKAYDLNLRDVADLERGFLEKPKQVEMGKKLEKKVKYFNEEAERHLETLDGMNIITETTPENQAKRNREKRKTLVNGIQTLLNQNDALLRRLQEYQSVLNGDIPE
soluble on expression in E. coli: soluble

MTGITIFYGDNIIRYVVNTKKGLRPYFKQLPDNYQAKFELNLMSKFSNFIINKPFSAINTAARHIFSRYLLENKHLFYQYFKISNTGIDHLEQLINVNFFSSDRTSFCECNRFP
soluble on expression in E. coli: not soluble

MPEQDIASLISEHRILLEEAVREVIRRYPQSLSPSENFSKHIFSSEQLKNIIDTVLAEAWQQSAMVVITLCDEKGECVLTYRMPGTSAEDIAVAGRAAEAAVSFAKENKQIIDPTLHNVIGGIDTSRGGCVVYCAGKVIGGIGISGASAEKNHLIALRAVDSLKSGSQK
soluble on expression in E. coli: not soluble

MSETELVGKDELLKAMTMCNSCPDFNLNDLRGKGDNNYQLYDWLIHNLPTAQYVLGKLVELIFSNNLTTGDEKQDEILNNFLYGQTNPEGVTNYHVLVQSIKESIVYGRSGLRFLSKDDGLINVKCNHFGVAQILNKEHYGYKELIGFVIDKKGRAITDVDLREGEIDSEEYFKKGIFVFKNNDNILLPPEKFVNLRVDTSTPKGSSVFDSDIQRVLLIASVYKRLLYDIEYDGAGRLIFWADNANSNEESSNNFLNDTESATKRRQDKYKKEVEEIMKLVKDSNSTSVLAVSNAFKKMDHLPRVTKATEFLSYLNQEGEIMAQVFGVPNVLLGLGKISGNISMEKVIDNAMLNSIIPLRENIATQISSILTNNLKVPKVYFDKYELKSQSDINDRRLKVLTVAERLKALGKEDLANKIIEEEIQL
soluble on expression in E. coli: not soluble

MSLARVELHVHLDGAVGVEELYNISVKRRLQLPGGVKSAAELQAYIIRISPAWHRFDVVNDIIGGDEAVIRDVAEGFVGRQARAGIVYTEVRYDPERLSRSGLANVSISRQAAVRAVRDGLRVGAEKHGVVAYQILCAMRGKSAEQCMATATLAAQMRSTSMGGVVGLDLAGDEVTYRNAPYVGCLRYAKRDLRLNITVHSGEFTETPADEVRSAVVDMGADRVGHGYAAVRNAATLSLVKERLIHVEACPRSAQLHGDLDALDEYRRAQLNFGLNTDDPSVFFGNGTIALDEAIVQDVLHYSVDEVRNAYANALSAAFGPTSAIPGLLRGSAPIVVEGHHHHHH
soluble on expression in E. coli: soluble

MGWCITVVHNTKWKAPPDTHIKCNYDAGFNVQNLDSTARWIIRNHDGIAQHWGSLQLDNTSTPLEAETKALLAALQQTWIRGYLRVIMEGDCETLTNLVSGSSSHNHLANLLDDIRIWAKKFSNVQFSFVRRGGNKVAHELAKLGCNSTCFYSDSCTLPIWLHQHYCNDFG
soluble on expression in E. coli: soluble

GSHMRKIQRYVRKDGKCNVHHGNVREKRAETLVFSTHAVISMRDGKLCLMFRVGDLRNSHIVEASIRAKLIKSKQTSEGEFIPLNQTDINVGYYTGDDRLFLVSPLIISHEINQQSPFWEISKAQLPKEELEIVVILEGMVEATGMTCQARSSYITSEILWGYRFTPVLTLEDGFYEVDYNSFHETYETSTPSLSAKELAELANRAEV
soluble on expression in E. coli: soluble

MREIVSIHIGQAGVQIGNACWELYCLEHGITPDGLMPDDTSYGVEDQSYNTFFSETPSGKHVPRAIFVDLEPTVIDEVRTGTYAKLFHPEQLISGKEDAANNYARGHYTIGKELIDVVMDRVRRLTERCQSLQGFLIFHSFGGGTGSGFTSLVMERLSIDYGKKAKLEFSIYPAPQISTSMVEPYNSLLTTHTTLEHSDCSFIMDNEAIYEITKVNLGVRSPTYTHLNRLLAQVVSSITASLRFDGALNVDLTEFQTNLVPYPRIHFPLVTYAPIISAEKAYHEQLSVSEITNVCFEPGSQMVKCDPRNGKYMACCLLYRGDVVPKEINSAISTIKTKRAIQFVDWCPTGFKVGINYQPPTVVPGGDMAKLQRAVCMLSNTTAIQEAWARLDHKFDLMYAKRAFVHWYVGEGMEEGEFSEAREDMAALEKDYEEVGVDSFDPNDEEY
soluble on expression in E. coli: not soluble
